According to patent US20200325236A1 (REYOUNG SUZHOU BIOLOGY SCIENCE AND TECHNOLOGY, published 2020):
Each block holds one binder with its values, some of them ahead of it.

Columns and labels:
[1] = target: T1, human 4-1BB protein (human, UniProt Q07011 24-186, limits assumed); assay: ELISA of binding activity before and after humanization; the coated antigen is not named there, taken as 4-1BB from the legend and axis
T1 construct: Coating protein in the ELISAs of Embodiments 4 and 5; also called h4-1BB

[2] = target: T2, human 4-1BB-Fc fusion protein (human, UniProt Q07011 24-186); assay: SPR, Biacore T200, h4-1BB-Fc amine-coupled to chip, antibody 0.3125-5.0 ug/mL as analyte
T2 construct: Antigen amine-coupled to the Biacore chip; also called h4-1BB-Fc fusion protein; h4-1BB; not shown: Fc part
Experimental: Affinity of the antibody: determining binding kinetics of the purified antibody which is prepared in the embodiment 2 and the h4-1BB by using BIAcore T200; coupling 1 mg/mL antigen (h4-1BB-Fc fusion protein) to the surface of a CMS chip by using an amino coupling method, binding at 30 μL/min for 300 s when the concentration of the antibody is within 0.3125-5.0 μg/mL and then dissociating for 300 s; and analyzing data recorded by the Biacore T200 by using Biacore T200 Evaluation Software, wherein analysis results are as shown in Table 1.

[3] = target: T1, human 4-1BB protein; assay: ELISA, human 4-1BB coated at 1 ug/mL, HRP goat-anti-human IgG detection
Experimental: (§1) The cross-reactive activity of the antibody with cynomolgus monkey 4-1BB molecules is determined by ELISA. The ELISA comprises steps of coating the human 4-1BB or cynomolgus monkey 4-1BB (1 μg/mL) with the ELISA plate, incubating overnight at 4 DEG C.; washing three times with PBST (0.1% Tween 20), blocking with 3% BSA for 1 h; washing three times, adding the purified anti-human 4-1BB antibody prepared in the embodiment 2 and incubating for 1 h; washing three times and adding horse radish peroxidase (HRP) labeled goat-anti-human IgG (1:2000 dilution) and incubating for 1 h; washing three times, then adding the substrate solution (TMB) and developing the color at room temperature in the dark; and finally, adding the stop solution (2N H₂SO₄) and reading the optical density (OD) value at 450 nm.

[4] = target: T1, human 4-1BB protein; assay: ELISA, plate coated with human 4-1BB protein (1 ug/mL), HRP goat anti-human IgG, OD 450 nm
[5] = target: cynomolgus monkey 4-1BB protein (cynomolgus monkey); assay: ELISA, cynomolgus monkey 4-1BB coated at 1 ug/mL, HRP goat-anti-human IgG detection
Experimental: as §1

[6] = target: T3, human OX-40 protein (human, UniProt P43489 29-214, limits assumed); assay: ELISA, plate coated with human OX-40 protein (1 ug/mL), HRP goat anti-human IgG, OD 450 nm
T3 construct: Homologous family member used as the specificity control
T3 sequence (looked up): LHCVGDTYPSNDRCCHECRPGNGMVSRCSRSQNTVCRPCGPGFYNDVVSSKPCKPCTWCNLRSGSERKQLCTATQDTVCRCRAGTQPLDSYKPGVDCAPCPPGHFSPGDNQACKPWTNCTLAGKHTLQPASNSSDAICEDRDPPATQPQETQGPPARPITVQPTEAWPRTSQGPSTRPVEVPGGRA

- EC50 (read off the curve) [1]: ~0.05 µg/mL
B1: Humanized 4-1BB antibody (antibody, V domains shown)
VH: QVQLVQSGAEVKKPGASVKVSCKASGYAFTNYWLGWVRQAPGHGLEWMGDIYPGNGNSYYAQKFQGRVTMTRDKSSSTVYMELSSLRSEDTAVYFCTRSSSYYRDVMDYWGQGTLVTVSS
VL: DIQLTQSPSFLSASVGDRVTITCRASENIYSYLVWYQQKPGKAPKLLIYNAKTLAEGVPSRFSGSGSGTEFTLTISSLQPEDFATYYCQHHYGTPLTFGAGTKLEIKR
notes: ab1 after humanization by template replacement with back mutations; also called humanized anti-human 4-1BB antibody; ab1 humanized antibody

- Kd [2]: 0.0934 nM
- koff [2]: 1.37e-05 s⁻¹
- kon [2]: 146000 M⁻¹ s⁻¹
- EC50 (read off the curve) [1]: ~0.09 µg/mL
- EC50 [3]: 0.67 nM
- EC50 (read off the curve) [4]: ~0.1 µg/mL
- EC50 [5]: 2.67 nM
- binding result [6]: no binding
B2: ab1 chimeric antibody (anti-human 4-1BB antibody ab1) (antibody, human IgG1, V domains shown)
VH: QVQLQQSGAELVRPGTSVKISCKASGYAFTNYWLGWVKQRPGHGLEWIGDIYPGNGNSYYNEKFKGRATLTADKSSSTVYMQLSSLTSEDSVVYFCTRSSSYYRDVMDYWGQGTSVTVSS
VL: DIQMTQSPASLSASVGETVTITCRASENIYSYLVWYQQKQGKSPQLLVYNAKTLAEGVSSRFSGSGSGTQFSLKINSLQPEDFGSYYCQHHYGTPLTFGAGTKLELKR
notes: also called anti-h4-1BB chimeric antibody; anti-h4-1BB monoclonal antibody
